Article PMC9751120

Experiments:
[1] = target: Alexa 488 labeled DARPin C14; assay: fluorescence polarisation; fluorescence anisotropy; 500 nM Alexa 488 labeled DARPin constant, p63 isoform 0-10 µM; 50 mM Tris pH 8, 150 mM NaCl, 0.5 mM TCEP, 0.1 % Tween-20; the sheet says 20 °C, the methods 16 °C
[2] = target: Alexa 488 labeled DARPin 8F1; assay: as above
[3] = target: Alexa 488 labeled DARPin A5; assay: as above
DARPin A5 [4] = assay: ITC; target protein titrated into a constant concentration of DARPin, 25 injections of 10 µl; 50 mM HEPES pH 7.4, 150 mM NaCl, 0.5 mM TCEP; 25 °C; AB hetero-association model (SEDPHAT)
DARPin A5 [5] = assay: ITC; target proteins titrated to constant concentrations of DARPin; 50 mM HEPES, pH 7.4, 150 mM NaCl, 0.5 mM TCEP; AB hetero-association model (SEDPHAT); temperatures not shown

Kd [1]	Kd [2]	Kd [3]	Ka (DARPin A5 [4])	Kd (DARPin A5 [5])	Binder
202 nM	95.6 nM	67.9 nM			ΔNp63α (natural protein) MLYLENNAQTQFSEPQYTNLGLLNSMDQQIQNGSSSTSPYNTDHAQNSVTAPSPYAQPSSTFDALSPSPAIPSNTDYPGPHSFDVSFQQSSTAKSATWTYSTELKKLYCQIAKTCPIQIKVMTPPPQGAVIRAMPVYKKAEHVTEVVKRCPNHELSREFNEGQIAPPSHLIRVEGNSHAQYVEDPITGRQSVLVPYEPPQVGTEFTTVLYNFMCNSSCVGGMNRRPILIIVTLETRDGQVLGRRCFEARICACPGRDRKADEDSIRKQQVSDSTKNGDGTKRPFRQNTHGIQMTSIKKRRSPDDELLYLPVRGRETYEMLLKIKESLELMQYLPQHTIETYRQQQQQQHQHLLQKQTSIQSPSSYGNSSPPLNKMNSMNKLPSVSQLINPQQRNALTPTTIPDGMGANIPMMGTHMPMAGDMNGLSPTQALPPPLSMPSTSHCTPPPPYPTDCSIVSFLARLGCSSCLDYFTTQGLTTIYQIEHYSMDDLASLKIPEQFRHAIWKGILDHRQLHEFSSPSHLLRTPSSASTVSVGSSETRGERVIDAVRFTLRQTISFPPRDEWNDFNFDMDARRNKQQRIKEEGE
			6.18e+07 M⁻¹	16 nM	p63 Sterile α-motif (SAM) domain (domain or fragment) PPYPTDCSIVSFLARLGCSSCLDYFTTQGLTTIYQIEHYSMDDLASLKIPEQFRHAIWKGILDHRQL
